1 substance from paper PMC6471090 can be followed below.

For test [1], the target named is wild-type green fluorescent protein (GFP) (Aequorea victoria) [GFP: P42212]. Kind of test: single-molecule photobleaching step counting and fluorescence intensity distribution (TIRFM); purified protein, 0.17 μg/mL solution, single spots imaged on the coverslip surface; 473-nm laser; self-association (monomer to dimer).
The target is the same in test [2]. Kind of test: single-molecule photobleaching step counting and fluorescence intensity distribution (TIRFM); purified protein, 0.57 μg/mL solution, single spots imaged on the coverslip surface; 473-nm laser; self-association (monomer to dimer).

In general, stoichiometry N refers to a count of units in the complex or per binding partner. In test [1], “wild-type green fluorescent protein (GFP) (from UniProt P42212 1-238) (natural protein)” displayed a percent of spots with one-step photobleaching (monomers) of 96.5%, a percent of spots with two-step photobleaching (dimers) of 3.5% and a stoichiometry N of 2. Moreover, in test [2], the percent of spots in the major intensity population (monomers) was 97% and the percent of spots with two-step photobleaching (dimers) worked out at 8.6%.
